Starred links: 1 amine or outer side, 2 acyl side, 3 side chain; linkers in the order of their positions; H or OH if unused. Non-standard residues stand in square brackets, D forms with d. Groups on a side chain read outwards from the residue. Primed or numbered codes have the meaning given here. No end group written: not given here. *: point of attachment. Dodecanoyl(12-OPh(4-COOH)) = O=C(O)c1ccc(OCCCCCCCCCCCC(=O)*)cc1; γGlu = O=C(O)[C@H](CCC(=O)[*:2])N[*:1]; αMeF = C[C@](N)(Cc1ccccc1)C(=O)O; αMeK = C[C@](N)(CCCCN)C(=O)O; Lauroyl = CCCCCCCCCCCC(=O)*; αMeS = C[C@](N)(CO)C(=O)O; PEG2′ = not defined here; Aib = CC(C)(N)C(=O)O; Ahx = NCCCCCC(=O)O
Key:
Experiment in all cases: cell-based or functional assay
GLP-1 receptor (GLP-1R) = GLP-1 receptor (GLP-1R) (human, UniProt P43220 24-463)
glucagon receptor (GCGR) = glucagon receptor (GCGR) (human, UniProt P47871 26-477)
[1] = target: T1, glucose-dependent insulinotropic peptide (gastric inhibitory polypeptide) receptor (GIPR) (human, UniProt P48546 22-466)
T1 sequence (looked up): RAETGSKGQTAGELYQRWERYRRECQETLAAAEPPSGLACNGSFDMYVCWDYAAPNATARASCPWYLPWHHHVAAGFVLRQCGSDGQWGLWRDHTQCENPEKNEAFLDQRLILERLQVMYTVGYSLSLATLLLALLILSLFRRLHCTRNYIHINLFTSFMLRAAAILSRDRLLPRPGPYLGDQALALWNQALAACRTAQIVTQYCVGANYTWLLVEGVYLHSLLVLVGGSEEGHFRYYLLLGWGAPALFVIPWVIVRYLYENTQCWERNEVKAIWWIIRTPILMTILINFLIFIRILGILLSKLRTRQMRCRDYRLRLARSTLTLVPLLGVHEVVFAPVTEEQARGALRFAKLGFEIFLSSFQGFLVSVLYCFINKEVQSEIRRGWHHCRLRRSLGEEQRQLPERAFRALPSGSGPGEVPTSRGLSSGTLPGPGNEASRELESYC

Chain of glucagon receptor (GCGR) (P47871 26-477): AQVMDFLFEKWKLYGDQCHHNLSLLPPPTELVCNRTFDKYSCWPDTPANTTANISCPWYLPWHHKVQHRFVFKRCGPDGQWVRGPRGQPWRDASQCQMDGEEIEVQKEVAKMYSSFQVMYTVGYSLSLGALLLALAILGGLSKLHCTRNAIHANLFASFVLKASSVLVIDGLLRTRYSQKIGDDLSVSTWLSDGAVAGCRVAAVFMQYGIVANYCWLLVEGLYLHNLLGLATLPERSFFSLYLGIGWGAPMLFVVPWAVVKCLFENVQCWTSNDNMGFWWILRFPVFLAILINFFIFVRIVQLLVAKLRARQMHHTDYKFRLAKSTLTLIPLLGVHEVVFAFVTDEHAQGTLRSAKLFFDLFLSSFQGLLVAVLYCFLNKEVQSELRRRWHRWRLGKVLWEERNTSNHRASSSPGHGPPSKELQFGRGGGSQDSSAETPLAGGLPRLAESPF

B1: SEQ ID NO 133 (peptide)
peptide: H[Aib]EGS[αMeF]TSDV[αMeS]S[αMeF]LEGEAAK([Ahx-Ahx-Ahx-Lauroyl])E[αMeF]IA[αMeF]VV[αMeK]GG-NH2
modifications: N-terminus assumed
SMILES: CCCCCCCCCCCC(=O)NCCCCCC(=O)NCCCCCC(=O)NCCCCCC(=O)NCCCC[C@H](NC(=O)[C@H](C)NC(=O)[C@H](C)NC(=O)[C@H](CCC(=O)O)NC(=O)CNC(=O)[C@H](CCC(=O)O)NC(=O)[C@H](CC(C)C)NC(=O)[C@](C)(Cc1ccccc1)NC(=O)[C@H](CO)NC(=O)[C@](C)(CO)NC(=O)[C@@H](NC(=O)[C@H](CC(=O)O)NC(=O)[C@H](CO)NC(=O)[C@@H](NC(=O)[C@](C)(Cc1ccccc1)NC(=O)[C@H](CO)NC(=O)CNC(=O)[C@H](CCC(=O)O)NC(=O)C(C)(C)NC(=O)[C@@H](N)Cc1c[nH]cn1)[C@@H](C)O)C(C)C)C(=O)N[C@@H](CCC(=O)O)C(=O)N[C@@](C)(Cc1ccccc1)C(=O)N[C@H](C(=O)N[C@@H](C)C(=O)N[C@@](C)(Cc1ccccc1)C(=O)N[C@H](C(=O)N[C@H](C(=O)N[C@@](C)(CCCCN)C(=O)NCC(=O)NCC(N)=O)C(C)C)C(C)C)[C@@H](C)CC
B1 was tested, and the “cAMP Mean pM GLP-1R” value (GLP-1 receptor (GLP-1R)) was 29.4 pM, the “cAMP Primary assay EC50 GLP-1R n1” value (GLP-1 receptor (GLP-1R)) was 34 pM and the “cAMP Primary assay EC50 GLP-1R n2” value (GLP-1 receptor (GLP-1R)) was 25 pM. For the same binder, the “cAMP Primary assay EC50 Gluc-R” value (glucagon receptor (GCGR)) was 27 nM, the “cAMP Primary assay EC50 Gluc-R (2nd)” value (glucagon receptor (GCGR)) was 27 nM and the “cAMP Primary assay EC50 GIP-R” value [1] was 27 nM. For the same binder, the “cAMP Primary assay EC50 GIP-R (2nd)” value [1] was 27 nM.

B2: SEQ ID NO 138 (peptide)
peptide: H[Aib]EGS[αMeF]TSDV[αMeS]S[αMeF]LEGEAAK([γGlu-γGlu-Dodecanoyl(12-OPh(4-COOH))])E[αMeF]IA[αMeF]VV[αMeK]GG-NH2
modifications: N-terminus assumed
SMILES: CC[C@H](C)[C@H](NC(=O)[C@](C)(Cc1ccccc1)NC(=O)[C@H](CCC(=O)O)NC(=O)[C@H](CCCCNC(=O)CC[C@H](NC(=O)CC[C@H](NC(=O)CCCCCCCCCCCOc1ccc(C(=O)O)cc1)C(=O)O)C(=O)O)NC(=O)[C@H](C)NC(=O)[C@H](C)NC(=O)[C@H](CCC(=O)O)NC(=O)CNC(=O)[C@H](CCC(=O)O)NC(=O)[C@H](CC(C)C)NC(=O)[C@](C)(Cc1ccccc1)NC(=O)[C@H](CO)NC(=O)[C@](C)(CO)NC(=O)[C@@H](NC(=O)[C@H](CC(=O)O)NC(=O)[C@H](CO)NC(=O)[C@@H](NC(=O)[C@](C)(Cc1ccccc1)NC(=O)[C@H](CO)NC(=O)CNC(=O)[C@H](CCC(=O)O)NC(=O)C(C)(C)NC(=O)[C@@H](N)Cc1c[nH]cn1)[C@@H](C)O)C(C)C)C(=O)N[C@@H](C)C(=O)N[C@@](C)(Cc1ccccc1)C(=O)N[C@H](C(=O)N[C@H](C(=O)N[C@@](C)(CCCCN)C(=O)NCC(=O)NCC(N)=O)C(C)C)C(C)C
With B2 the “cAMP Mean pM GLP-1R” value (GLP-1 receptor (GLP-1R)) was 17.2 pM, the “cAMP Primary assay EC50 GLP-1R n1” value (GLP-1 receptor (GLP-1R)) was 19 pM and the “cAMP Primary assay EC50 GLP-1R n2” value (GLP-1 receptor (GLP-1R)) was 15 pM. For the same binder, the “cAMP Primary assay EC50 Gluc-R” value (glucagon receptor (GCGR)) was 26 nM, the “cAMP Primary assay EC50 Gluc-R (2nd)” value (glucagon receptor (GCGR)) was 26 nM and the “cAMP Primary assay EC50 GIP-R” value [1] was 26 nM. For the same binder, the “cAMP Primary assay EC50 GIP-R (2nd)” value [1] was 26 nM.

B3: SEQ ID NO 137 (peptide)
peptide: H[Aib]EGS[αMeF]TSDV[αMeS]S[αMeF]LEGEAAK([γGlu-Dodecanoyl(12-OPh(4-COOH))])E[αMeF]IA[αMeF]VV[αMeK]GG-NH2
modifications: N-terminus assumed
SMILES: CC[C@H](C)[C@H](NC(=O)[C@](C)(Cc1ccccc1)NC(=O)[C@H](CCC(=O)O)NC(=O)[C@H](CCCCNC(=O)CC[C@H](NC(=O)CCCCCCCCCCCOc1ccc(C(=O)O)cc1)C(=O)O)NC(=O)[C@H](C)NC(=O)[C@H](C)NC(=O)[C@H](CCC(=O)O)NC(=O)CNC(=O)[C@H](CCC(=O)O)NC(=O)[C@H](CC(C)C)NC(=O)[C@](C)(Cc1ccccc1)NC(=O)[C@H](CO)NC(=O)[C@](C)(CO)NC(=O)[C@@H](NC(=O)[C@H](CC(=O)O)NC(=O)[C@H](CO)NC(=O)[C@@H](NC(=O)[C@](C)(Cc1ccccc1)NC(=O)[C@H](CO)NC(=O)CNC(=O)[C@H](CCC(=O)O)NC(=O)C(C)(C)NC(=O)[C@@H](N)Cc1c[nH]cn1)[C@@H](C)O)C(C)C)C(=O)N[C@@H](C)C(=O)N[C@@](C)(Cc1ccccc1)C(=O)N[C@H](C(=O)N[C@H](C(=O)N[C@@](C)(CCCCN)C(=O)NCC(=O)NCC(N)=O)C(C)C)C(C)C
With B3 the “cAMP Mean pM GLP-1R” value (GLP-1 receptor (GLP-1R)) was 5.2 pM, the “cAMP Primary assay EC50 GLP-1R n1” value (GLP-1 receptor (GLP-1R)) was 6.6 pM and the “cAMP Primary assay EC50 GLP-1R n2” value (GLP-1 receptor (GLP-1R)) was 3.8 pM. For the same binder, the “cAMP Primary assay EC50 Gluc-R” value (glucagon receptor (GCGR)) was 27 nM, the “cAMP Primary assay EC50 Gluc-R (2nd)” value (glucagon receptor (GCGR)) was 27 nM and the “cAMP Primary assay EC50 GIP-R” value [1] was 27 nM. For the same binder, the “cAMP Primary assay EC50 GIP-R (2nd)” value [1] was 27 nM.

B4: SEQ ID NO 134 (peptide)
peptide: H[Aib]EGS[αMeF]TSDV[αMeS]S[αMeF]LEGEAAK([PEG2′-Lauroyl])E[αMeF]IA[αMeF]VV[αMeK]GG-NH2
With B4 the “cAMP Mean pM GLP-1R” value (GLP-1 receptor (GLP-1R)) was 6 pM, the “cAMP Primary assay EC50 GLP-1R n1” value (GLP-1 receptor (GLP-1R)) was 7 pM and the “cAMP Primary assay EC50 GLP-1R n2” value (GLP-1 receptor (GLP-1R)) was 4.9 pM. The “cAMP Primary assay EC50 Gluc-R” value (glucagon receptor (GCGR)) was 28 nM, the “cAMP Primary assay EC50 Gluc-R (2nd)” value (glucagon receptor (GCGR)) was 28 nM and the “cAMP Primary assay EC50 GIP-R” value [1] was 28 nM. For the same binder, the “cAMP Primary assay EC50 GIP-R (2nd)” value [1] was 28 nM.

B5: SEQ ID NO 132 (peptide)
peptide: H[Aib]EGS[αMeF]TSDV[αMeS]S[αMeF]LEGEAAK([Ahx-Ahx-Lauroyl])E[αMeF]IA[αMeF]VV[αMeK]GG-NH2
modifications: N-terminus assumed
SMILES: CCCCCCCCCCCC(=O)NCCCCCC(=O)NCCCCCC(=O)NCCCC[C@H](NC(=O)[C@H](C)NC(=O)[C@H](C)NC(=O)[C@H](CCC(=O)O)NC(=O)CNC(=O)[C@H](CCC(=O)O)NC(=O)[C@H](CC(C)C)NC(=O)[C@](C)(Cc1ccccc1)NC(=O)[C@H](CO)NC(=O)[C@](C)(CO)NC(=O)[C@@H](NC(=O)[C@H](CC(=O)O)NC(=O)[C@H](CO)NC(=O)[C@@H](NC(=O)[C@](C)(Cc1ccccc1)NC(=O)[C@H](CO)NC(=O)CNC(=O)[C@H](CCC(=O)O)NC(=O)C(C)(C)NC(=O)[C@@H](N)Cc1c[nH]cn1)[C@@H](C)O)C(C)C)C(=O)N[C@@H](CCC(=O)O)C(=O)N[C@@](C)(Cc1ccccc1)C(=O)N[C@H](C(=O)N[C@@H](C)C(=O)N[C@@](C)(Cc1ccccc1)C(=O)N[C@H](C(=O)N[C@H](C(=O)N[C@@](C)(CCCCN)C(=O)NCC(=O)NCC(N)=O)C(C)C)C(C)C)[C@@H](C)CC
With B5 the “cAMP Mean pM GLP-1R” value (GLP-1 receptor (GLP-1R)) was 9 pM, the “cAMP Primary assay EC50 GLP-1R n1” value (GLP-1 receptor (GLP-1R)) was 11 pM and the “cAMP Primary assay EC50 GLP-1R n2” value (GLP-1 receptor (GLP-1R)) was 7.1 pM. For the same binder, the “cAMP Primary assay EC50 Gluc-R” value (glucagon receptor (GCGR)) was 28 nM, the “cAMP Primary assay EC50 Gluc-R (2nd)” value (glucagon receptor (GCGR)) was 28 nM and the “cAMP Primary assay EC50 GIP-R” value [1] was 28 nM. The “cAMP Primary assay EC50 GIP-R (2nd)” value [1] was 28 nM.

B6: SEQ ID NO 135 (peptide)
peptide: H[Aib]EGS[αMeF]TSDV[αMeS]S[αMeF]LEGEAAK([PEG2′-PEG2′-Lauroyl])E[αMeF]IA[αMeF]VV[αMeK]GG-NH2
B6 was tested, and the “cAMP Mean pM GLP-1R” value (GLP-1 receptor (GLP-1R)) was 5 pM, the “cAMP Primary assay EC50 GLP-1R n1” value (GLP-1 receptor (GLP-1R)) was 5.4 pM and the “cAMP Primary assay EC50 GLP-1R n2” value (GLP-1 receptor (GLP-1R)) was 4.5 pM. For the same binder, the “cAMP Primary assay EC50 Gluc-R” value (glucagon receptor (GCGR)) was 27 nM, the “cAMP Primary assay EC50 Gluc-R (2nd)” value (glucagon receptor (GCGR)) was 27 nM and the “cAMP Primary assay EC50 GIP-R” value [1] was 27 nM. For the same binder, the “cAMP Primary assay EC50 GIP-R (2nd)” value [1] was 27 nM.

B7: SEQ ID NO 136 (peptide)
peptide: H[Aib]EGS[αMeF]TSDV[αMeS]S[αMeF]LEGEAAK([PEG2′-PEG2′-PEG2′-Lauroyl])E[αMeF]IA[αMeF]VV[αMeK]GG-NH2
With B7 the “cAMP Mean pM GLP-1R” value (GLP-1 receptor (GLP-1R)) was 3 pM, the “cAMP Primary assay EC50 GLP-1R n1” value (GLP-1 receptor (GLP-1R)) was 3.5 pM and the “cAMP Primary assay EC50 GLP-1R n2” value (GLP-1 receptor (GLP-1R)) was 2.5 pM. For the same binder, the “cAMP Primary assay EC50 Gluc-R” value (glucagon receptor (GCGR)) was 26 nM, the “cAMP Primary assay EC50 Gluc-R (2nd)” value (glucagon receptor (GCGR)) was 26 nM and the “cAMP Primary assay EC50 GIP-R” value [1] was 26 nM. For the same binder, the “cAMP Primary assay EC50 GIP-R (2nd)” value [1] was 26 nM.

Reference: patent publication US20200079833A1 (AstraZeneca / MedImmune, published 2020)
